US20220119534A1 (DRAGONFLY THERAPEUTICS, published 2022)
Residue numbers refer to the chain shown, from its start. In names and notes the source's numbering stands. Several values for one entry are separate records, joined by “and”; a condition that tells them apart may be missing. Equal entries are not always repeated.

Columns and labels:
mFc-hNKG2D [1] = target: T1, mFc-hNKG2D (human, UniProt P26718 73-216); experiment: SPR Biacore 8K 37 C; mFc-hNKG2D captured on anti-mFc chip, TriNKET as analyte; steady state fit; after 4 wks 40 C in phosphate/citrate/NaCl pH 7.8, n=2
T1 construct: extracellular domain; Made in house (Dragonfly Tx); the order of tag and ECD follows the name mFc-hNKG2D; also called mFc-tagged human NKG2D; not shown: mouse Fc tag
T1 sequence (looked up): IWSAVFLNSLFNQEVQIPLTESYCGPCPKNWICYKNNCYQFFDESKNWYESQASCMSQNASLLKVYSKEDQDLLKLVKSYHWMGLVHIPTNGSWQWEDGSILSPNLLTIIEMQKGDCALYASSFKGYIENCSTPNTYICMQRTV

mFc-hNKG2D [2] = target: T1, mFc-hNKG2D; experiment: SPR Biacore 8K 37 C; mFc-hNKG2D captured on anti-mFc chip, TriNKET as analyte; steady state fit; pH 5.0 control
mFc-hNKG2D [3] = target: T1, mFc-hNKG2D; experiment: SPR Biacore 8K 37 C; mFc-hNKG2D captured on anti-mFc chip, TriNKET as analyte; 1:1 kinetic fit; after low pH hold, n=3
[4] = target: T2, Human CLEC12A-His (recombinant, K244 WT) (human, UniProt Q5QGZ9 65-265); experiment: SPR 37C, AB0089 captured on anti-hFc, two-state fit (kd1)
T2 construct: Made in house (Dragonfly Tx); also called hCLEC12A; hCLEC12A-His; not shown: His tag
T2 sequence: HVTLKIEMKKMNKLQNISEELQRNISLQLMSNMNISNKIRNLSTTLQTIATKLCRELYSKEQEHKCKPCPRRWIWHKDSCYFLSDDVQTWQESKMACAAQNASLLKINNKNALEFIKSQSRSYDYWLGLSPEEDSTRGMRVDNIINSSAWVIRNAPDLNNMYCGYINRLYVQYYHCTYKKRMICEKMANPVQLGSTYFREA

[5] = target: T3, Human CLEC12A expressed on cells (Ba/F3-hCLEC12A, PL21, HL60) (human, UniProt Q5QGZ9 1-265); experiment: cell-based or functional assay
T3 sequence: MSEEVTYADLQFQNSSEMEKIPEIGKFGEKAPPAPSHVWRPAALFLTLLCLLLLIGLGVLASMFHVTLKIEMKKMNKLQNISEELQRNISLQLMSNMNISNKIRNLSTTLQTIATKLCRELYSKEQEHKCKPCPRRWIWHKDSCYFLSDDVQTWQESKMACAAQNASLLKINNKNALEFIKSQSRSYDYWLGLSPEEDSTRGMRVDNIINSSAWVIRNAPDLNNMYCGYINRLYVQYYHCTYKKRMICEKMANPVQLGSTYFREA

[6] = target: T4, Human CD32a H131 (FcγRIIa H131) (human, UniProt P12318 36-218, limits assumed, biotinylated); experiment: SPR 25C, biotinylated receptor captured on SA chip
T4 construct: Bought recombinant receptor; also called hFcγRIIa H131; FcgRIIa H131
T4 sequence (looked up): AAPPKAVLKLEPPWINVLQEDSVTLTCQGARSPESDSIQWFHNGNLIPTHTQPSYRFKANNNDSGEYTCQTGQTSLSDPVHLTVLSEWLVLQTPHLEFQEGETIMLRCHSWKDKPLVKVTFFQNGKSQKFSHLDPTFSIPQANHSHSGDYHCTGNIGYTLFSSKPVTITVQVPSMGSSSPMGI
Description: Human and cynomolgus CD64, high and low affinity alleles of CD16a (V158 and F158, respectively), two alleles of CD32a (H131 and R131), CD16b, CD32b and cynomolgus CD16 were captured via biotin on a primed (according to the manufacturers instruction) Biacore chip. […] Due to irreversibility of streptavidin-biotin interaction, the capture step for all receptors except FcγRI (CD64) was performed just once prior to the start of the binding experiment. hCD64 and cyno CD64 capture on the CAP chip surface was performed during each cycle in accordance with the manufacturer's instructions for the Biotin CAPture kit.

[7] = target: T2, Human CLEC12A-His (recombinant, K244 WT); experiment: SPR, two-state fit; after 4 wks 40C in HST pH 6.0
Description: Briefly, human Fc specific antibodies were covalently immobilized at a density ˜8000-10000 resonance units (RU) on carboxy methyl dextran matrix of a CM5 biosensor chip via amine-coupling chemistry to create an anti-hFc IgG chip. […] Association was monitored for 300 seconds and dissociation was monitored for 600 seconds. Surfaces were regenerated between cycles with three pulses of 10 mM glycine-HCl, pH 1.7 injected for 20 seconds at 100 μl/min. HBS-EP+ (1×) with 0.1 mg/ml BSA was used as running buffer throughout the experiment. Experiments were performed at physiological temperature of 37° C. To obtain kinetic rate constants and overall binding affinity, double-referenced data were fit to a two-state kinetic model using Biacore 8K Insight Evaluation software (Cytiva).

Human CD16b (FcγRIIIb) = target: T5, Human CD16b (FcγRIIIb) (human, UniProt O75015 17-200, limits assumed, biotinylated); experiment: SPR 25C, biotinylated CD16b captured
T5 construct: Bought recombinant receptor; also called hFcγRIIIb; CD16b (FcγR3b)
T5 sequence (O75015 17-200 limits assumed): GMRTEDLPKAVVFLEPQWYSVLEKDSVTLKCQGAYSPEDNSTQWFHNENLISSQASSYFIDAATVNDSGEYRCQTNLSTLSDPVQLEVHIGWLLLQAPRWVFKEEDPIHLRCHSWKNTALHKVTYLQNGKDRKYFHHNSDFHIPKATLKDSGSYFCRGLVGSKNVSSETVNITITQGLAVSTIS

Human CD16a V158 [8] = target: T6, Human CD16a V158 (human, UniProt P08637 17-208, biotinylated); experiment: SPR, hCD16a V158 captured, kinetic fit
T6 construct: Bought recombinant receptor; also called hCD16a (V158); hFcγRIIIa V158
T6 sequence (P08637 17-208 F176V limits assumed): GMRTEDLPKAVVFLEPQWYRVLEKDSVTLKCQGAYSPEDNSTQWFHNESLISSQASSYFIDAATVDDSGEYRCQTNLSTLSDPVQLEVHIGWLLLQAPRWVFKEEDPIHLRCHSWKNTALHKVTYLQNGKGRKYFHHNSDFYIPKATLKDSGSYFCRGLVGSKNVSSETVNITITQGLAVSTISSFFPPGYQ

Human CD32a H131 = target: T7, Human CD32a H131 (human, UniProt P12318 36-218, limits assumed, biotinylated); experiment: SPR, steady state fit; average for AB0192
T7 construct: Bought recombinant receptor; also called hFcγRIIa H131
T7 sequence (looked up): T4 sequence (looked up)

Human CD32a R131 = target: T8, Human CD32a R131 (human, UniProt P12318 36-218, limits assumed, biotinylated); experiment: SPR, steady state fit; average for AB0192
T8 construct: Bought recombinant receptor; also called hFcγRIIa R131
T8 sequence (looked up): T4 sequence (looked up) with H132R

Human CD16a V158 [9] = target: T6, Human CD16a V158; experiment: SPR; control sample (CST pH 7.0 study)
Human CLEC12A-His = target: T9, Human CLEC12A-His (human, UniProt Q5QGZ9 65-265); experiment: SPR; control sample (CST pH 7.0 study)
T9 construct: Recombinant soluble protein made in house; also called hCLEC12A-His; hCLEC12A; not shown: His tag
T9 sequence: T2 sequence

mFc-hNKG2D [10] = target: T10, mFc-hNKG2D (human, UniProt P26718 73-216); experiment: SPR; control sample (CST pH 7.0 study)
T10 construct: extracellular domain; Recombinant mFc-tagged NKG2D dimer, made in house; also called human NKG2D; not shown: mouse Fc tag
T10 sequence (looked up): T1 sequence (looked up)

B1: F3'-1602 TriNKET (bispecific antibody, human IgG1, kappa)
chain: QLQLQESGPGLVKPSETLSLTCTVSGFSLTNYGLHWIRQPPGKCLEWIGVIWSGGKTDYNPSLKSRVTISKDTSKNQFSLKLSSVQAADTAVYYCAKYDYDDSLDYWGQGTLVTVSSGGGGSGGGGSGGGGSGGGGSDIQMTQSPSSLSASVGDRVTITCHASQNINFWLSWYQQKPGKAPKLLIYEASNLHTGVPSRFSGSGSGTRFTLTISSLQPEDIATYYCQQSHSYPLTFGCGTKLEIKGSDKTHTCPPCPAPELLGGPSVFLFPPKPKDTLMISRTPEVTCVVVDVSHEDPEVKFNWYVDGVEVHNAKTKPREEQYNSTYRVVSVLTVLHQDWLNGKEYKCKVSNKALPAPIEKTISKAKGQPREPRVYTLPPCRDELTKNQVSLTCLVKGFYPSDIAVEWESNGQPENNYKTTPPVLVSDGSFTLYSKLTVDKSRWQQGNVFSCSVMHEALHNHYTQKSLSLSPG
heavy: EVQLVESGGGLVKPGGSLRLSCAASGFTFSSYSMNWVRQAPGKGLEWVSSISSSSSYIYYADSVKGRFTISRDNAKNSLYLQMNSLRAEDTAVYYCARGAPIGAAAGWFDPWGQGTLVTVSSASTKGPSVFPLAPSSKSTSGGTAALGCLVKDYFPEPVTVSWNSGALTSGVHTFPAVLQSSGLYSLSSVVTVPSSSLGTQTYICNVNHKPSNTKVDKKVEPKSCDKTHTCPPCPAPELLGGPSVFLFPPKPKDTLMISRTPEVTCVVVDVSHEDPEVKFNWYVDGVEVHNAKTKPREEQYNSTYRVVSVLTVLHQDWLNGKEYKCKVSNKALPAPIEKTISKAKGQPREPQVCTLPPSRDELTENQVSLTCLVKGFYPSDIAVEWESNGQPENNYKTTPPVLDSDGSFFLYSWLTVDKSRWQQGNVFSCSVMHEALHNHYTQKSLSLSPG
light: DIQMTQSPSSVSASVGDRVTITCRASQGISSWLAWYQQKPGKAPKLLIYAASSLQSGVPSRFSGSGSGTDFTLTISSLQPEDFATYYCQQGVSFPRTFGGGTKVEIKRTVAAPSVFIFPPSDEQLKSGTASVVCLLNNFYPREAKVQWKVDNALQSGNSQESVTEQDSKDSTYSLSSTLTLSKADYEKHKVYACEVTHQGLSSPVTKSFNRGEC
notes: Trispecific F3' format: CLEC12A scFv-Fc paired with NKG2D Fab-Fc; Stressed and control samples of the stability studies are the same molecule; also called AB0237
mFc-hNKG2D [1]
  Kd: 872 nM
mFc-hNKG2D [2]
  Kd: 684 nM
mFc-hNKG2D [3]
  Kd: 671 nM
  koff: 0.139 s⁻¹
  kon: 207000 M⁻¹ s⁻¹

B2: AB0089 TriNKET (bispecific antibody, human IgG1, kappa)
chain: B1 chain with S53V, K56A, K71V, Y98G, D101G, S103T, R207D, I220F
heavy: B1 heavy
light: B1 light
notes: F3' format heterodimer of three chains; human IgG1 Fc with EW-RVT and Y349C/S354C mutations; also called AB0089 Lot AB0089-002; CLEC12A TriNKET AB0089
[4]
  koff: 0.0426 s⁻¹ and 0.0449 s⁻¹ and 0.0432 s⁻¹
[5]
  EC50, KHYG1-CD16aV cytotoxicity assay; after forced oxidation: 0.16 nM
  EC50, KHYG1-CD16aV cytotoxicity assay; control sample: 0.11 nM
[6]
  Kd: 954 nM and 823 nM and 930 nM and 895 nM
[7]
  Kd: 1 nM
Human CD16b (FcγRIIIb)
  Kd: 10300 nM and 8800 nM and 7400 nM

B3: AB0192 TriNKET (other)
chain: EVQLVESGGGVVQPGGSLRLSCAASGFTFNAFGMHWVRQAPGKCLEWVAFISSGSTSIYYANTVKGRFTISRDNSKNTLYLQMNSLRAEDTAVYYCARDGYPTGGAMDYWGQGTSVTVSSGGGGSGGGGSGGGGSGGGGSDIQMTQSPSSLSASVGDRVTITCKASQDIYNYLSWFQQKPGKAPKPLIYRANILVSGVPSRFSGSGSGQDYTFTISSLQPEDIATYYCLQFDAFPFTFGCGTKLEIKGSDKTHTCPPCPAPELLGGPSVFLFPPKPKDTLMISRTPEVTCVVVDVSHEDPEVKFNWYVDGVEVHNAKTKPREEQYNSTYRVVSVLTVLHQDWLNGKEYKCKVSNKALPAPIEKTISKAKGQPREPRVYTLPPCRDELTKNQVSLTCLVKGFYPSDIAVEWESNGQPENNYKTTPPVLVSDGSFTLYSKLTVDKSRWQQGNVFSCSVMHEALHNHYTQKSLSLSPG
heavy: B1 heavy
light: B1 light
notes: the condition stands under assay; also called AB0192 Lot AB0192-005
Human CD16a V158 [8]
  Kd: 184 nM and 173 nM and 177 nM
  koff: 0.019 s⁻¹ and 0.0201 s⁻¹ and 0.0206 s⁻¹
  kon: 103000 M⁻¹ s⁻¹ and 116000 M⁻¹ s⁻¹
Human CD32a H131
  Kd: 1010 nM
Human CD32a R131
  Kd: 1400 nM
Human CD16a V158 [9]
  Kd: 171 nM
  koff: 0.0199 s⁻¹
  kon: 117000 M⁻¹ s⁻¹
Human CLEC12A-His
  Kd: 1.81 nM
  koff: 0.0014 s⁻¹
  kon: 776000 M⁻¹ s⁻¹
mFc-hNKG2D [10]
  Kd: 588 nM
  koff: 0.122 s⁻¹
  kon: 208000 M⁻¹ s⁻¹
